From US20240190960A1 (Chugai, published 2024)

T1: Biotinylated human CD3εδ heterodimer (Fc-fused human CD3ε / Fc-fused human CD3δ) (human, biotin on the Avi tag (BirA))
T1 chain 1: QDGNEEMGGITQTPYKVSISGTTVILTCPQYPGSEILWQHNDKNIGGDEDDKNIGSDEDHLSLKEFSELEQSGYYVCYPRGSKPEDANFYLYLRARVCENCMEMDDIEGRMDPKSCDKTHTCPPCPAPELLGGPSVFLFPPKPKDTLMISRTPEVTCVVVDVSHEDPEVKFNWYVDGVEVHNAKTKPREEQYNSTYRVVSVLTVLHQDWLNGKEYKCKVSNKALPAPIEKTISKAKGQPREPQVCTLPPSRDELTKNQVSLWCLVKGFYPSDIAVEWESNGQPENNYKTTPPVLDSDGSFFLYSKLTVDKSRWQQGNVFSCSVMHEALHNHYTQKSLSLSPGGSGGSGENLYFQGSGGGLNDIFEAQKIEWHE
T1 chain 2: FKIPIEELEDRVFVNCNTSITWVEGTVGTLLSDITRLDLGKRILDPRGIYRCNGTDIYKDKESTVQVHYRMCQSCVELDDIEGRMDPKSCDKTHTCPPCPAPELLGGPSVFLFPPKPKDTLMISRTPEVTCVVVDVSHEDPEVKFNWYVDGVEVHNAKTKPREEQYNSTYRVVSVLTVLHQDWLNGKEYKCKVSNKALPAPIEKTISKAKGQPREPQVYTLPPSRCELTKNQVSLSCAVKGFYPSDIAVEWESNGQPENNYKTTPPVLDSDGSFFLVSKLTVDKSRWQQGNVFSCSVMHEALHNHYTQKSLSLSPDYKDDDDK


Legend:
[1] = target: T1, Biotinylated human CD3εδ heterodimer …; assay: BLI (Octet RED384), 37 C; biotinylated CD3εδ on streptavidin sensor, one-arm antibody in solution for 120 s (0-1000 nM used, the concentration shown is not given)
Protocol: Using an Octet RED 384 (ForteBio), a streptavidin sensor (ForteBio) was reacted with CD3εδ prepared at 0.2 μM in ACES at 37° C. for 300 seconds. […] Response values were extracted every three seconds, and graphs were depicted using Microsoft Excel 2013 (Microsoft).

[2] = target: T2, Human CD3εδ heterodimer (soluble human CD3ε with FLAG tag / soluble human CD3δ with His tag) (human, UniProt P07766 22-126; P04234 22-105); assay: SPR (Biacore T200), BiAb captured on protein A, CD3εδ 0-15000 nM as analyte, 37 C
T2 construct: Positions are counted from 1, so the entries may include the signal peptides
Protocol: (3) Evaluation of Binding Properties of Clamping Antibodies by SPR Using an Amine Coupling Kit (GE Healthcare), SuRe Protein A (GE Healthcare) Prepared at 25 μg/mL in Acetate4.5 (GE Healthcare) was Immobilized onto Sensor Chip CM4 at Approximately 1200 RU Per Flow Cell.
HBS-EP+(GE Healthcare) was used for the running buffer, and the measurement was carried out at 37° C. Each antibody was reacted at a flow rate of 10 μL/min for 60 seconds to capture 1000 RU, and analyte CD3εδ prepared at 0 nM, 4.8 nM, 24 nM, 120 nM, 600 nM, 3000 nM, or 15000 nM was allowed to act at a flow rate of 30 μL/min for 60 seconds to monitor the binding phase, and HBS-EP+ was passed at a flow rate of 30 μL/min for 120 seconds to monitor the dissociation phase. The sensor chip was regenerated by passing Glycine1.5 and 25 mM NaOH, each at a flow rate of 30 μL/min for 30 seconds. The dissociation constant KD (M) was calculated based on the association rate constant ka (1/Ms) and the dissociation rate constant kd (1/s), which are kinetic parameters calculated from the sensorgram obtained by the measurement. Biacore T200 Evaluation Software (GE Healthcare) was used for the calculation of each parameter.

Binder | binding result [1] | Kd [2] [µM]
CE115HA000 one arm (CE115HA000-pE22Hh/GLS3000-k0//Kn010) (antibody, human IgG1, kappa, L234A L235A, N297A, also called one-arm antibody CE115HA000) heavy: QVQLVESGGGVVQPGRSLRLSCAASGFTFSNAWMHWVRQAPGKGLEWVAQIKAKSNNYATYYAESVKGRFTISRDDSKNSLYLQMNSLKTEDTAVYYCRYVHYGAYYGVDAWGQGTTVTVSSASTKGPSVFPLAPSSKSTSGGTAALGCLVKDYFPEPVTVSWNSGALTSGVHTFPAVLQSSGLYSLSSVVTVPSSSLGTQTYICNVNHKPSNTKVDKKVEPKSCDKTHTCPPCPAPEAAGGPSVFLFPPKPKDTLMISRTPEVTCVVVDVSHEDPEVKFNWYVDGVEVHNAKTKPREEQYASTYRVVSVLTVLHQDWLNGKEYKCKVSNKALPAPIEKTISKAKGQPREPQVYTLPPSRCELTKNQVSLSCAVKGFYPSDIAVEWESNGQPENNYKTTPPVLDSDGSFFLVSKLTVDKSRWQQGNVFSCSVMHEALHNHYTQKSLSLSPDYKDDDDK light: DIVMTQSPLSLPVTPGEPASISCRSSQSLVHSNRNTYLHWYQQKPGQAPRLLIYKVSNRFSGVPDRFSGSGSGTDFTLKISRVEAEDVGVYYCGQGTQVPYTFGQGTKLEIKRTVAAPSVFIFPPSDEQLKSGTASVVCLLNNFYPREAKVQWKVDNALQSGNSQESVTEQDSKDSTYSLSSTLTLSKADYEKHKVYACEVTHQGLSSPVTKSFNRGEC not shown | binds | 
BiAb of CE115HA000-BS03a/GLS3000-k0 with the IC17 arm (bispecific antibody, human IgG1, kappa, N297A, how the CE115/IC17 BiAb was made is not described) heavy 1: QVQLVESGGGVVQPGRSLRLSCAASGFTFSNAWMHWVRQAPGKGLEWVAQIKAKSNNYATYYAESVKGRFTISRDDSKNSLYLQMNSLKTEDTAVYYCRYVHYGAYYGVDAWGQGTTVTVSSASTKGPSVFPLAPSSRSTSESTAALGCLVKDYFPEPVTVSWNSGALTSGVHTFPAVLQSSGLYSLSSVVTVPSSSLGTKTYTCNVDHKPSNTKVDKRVEPKSCDKTHTCPPCPAPELRRGPKVFLFPPKPKDTLMISRTPEVTCVVVDVSQEDPEVQFNWYVDGVEVHNAKTKPREEQFASTYRVVSVLTVLHQDWLNGKEYKCKVSNKGLPSSIEKTISKAKGQPREPQVYTLPPSREEMTKNQVSLTCLVKGFYPSDIAVEWESNGQPENNYKTTPPYLDSDGSFFLYSKLTVDKSRWQQGNVFSCSVMHEALHNHYTQESLSLSP light 1: DIVMTQSPLSLPVTPGEPASISCRSSQSLVHSNRNTYLHWYQQKPGQAPRLLIYKVSNRFSGVPDRFSGSGSGTDFTLKISRVEAEDVGVYYCGQGTQVPYTFGQGTKLEIKRTVAAPSVFIFPPSDEQLKSGTASVVCLLNNFYPREAKVQWKVDNALQSGNSQESVTEQDSKDSTYSLSSTLTLSKADYEKHKVYACEVTHQGLSSPVTKSFNRGEC heavy 2: QVQLQQSGPQLVRPGASVKISCKASGYSFTSYWMHWVNQRPGQGLEWIGMIDPSYSETRLNQKFKDKATLTVDKSSSTAYMQLSSPTSEDSAVYYCALYGNYFDYWGQGTTLTVSSASTKGPSVFPLAPSSRSTSESTAALGCLVKDYFPEPVTVSWNSGALTSGVHTFPAVLQSSGLYSLSSVVTVPSSSLGTKTYTCNVDHKPSNTKVDKRVEPKSCDKTHTCPPCPAPELRRGPKVFLFPPKPKDTLMISRTPEVTCVVVDVSQEDPEVQFNWYVDGVEVHNAKTKPREEQFASTYRVVSVLTVLHQDWLNGKEYKCKVSNKGLPSSIEKTISKAKGQPREPQVYTLPPSREEMTKNQVSLTCLVKGFYPSDIAVEWESNGQPENNYKTTPPYLDSDGSFFLYSKLTVDKSRWQQGNVFSCSVMHEALHNHYTQESLSLSP light 2: DIQMTQSSSSFSVSLGDRVTITCKASEDIYNRLAWYQQKPGNAPRLLISGATSLETGVPSRFSGSGSGKDYTLSITSLQTEDVATYYCQQYWSTPYTFGGGTKLEVKRTVAAPSVFIFPPSDEQLKSGTASVVCLLNNFYPREAKVQWKVDNALQSGNSQESVTEQDSKDSTYSLSSTLTLSKADYEKHKVYACEVTHQGLSSPVTKSFNRGEC |  | 0.35
CE115HA056 one arm (CE115HA056-pE22Hh/GLS3000-k0//Kn010) (antibody, human IgG1, kappa, L234A L235A, N297A, One-arm format; also called one-arm antibody CE115HA056) heavy: QVQLVESGGGVVQPGRSLRLSCAASGFTFSNAWMHWVRQAPGKGLEWVAQIKAKSNNYATYYAESVKGRFTISRDDSKNSLYLQMNSLKTEDTAVYYCRYAHYGAYYGVDAWGQGTTVTVSSASTKGPSVFPLAPSSKSTSGGTAALGCLVKDYFPEPVTVSWNSGALTSGVHTFPAVLQSSGLYSLSSVVTVPSSSLGTQTYICNVNHKPSNTKVDKKVEPKSCDKTHTCPPCPAPEAAGGPSVFLFPPKPKDTLMISRTPEVTCVVVDVSHEDPEVKFNWYVDGVEVHNAKTKPREEQYASTYRVVSVLTVLHQDWLNGKEYKCKVSNKALPAPIEKTISKAKGQPREPQVYTLPPSRCELTKNQVSLSCAVKGFYPSDIAVEWESNGQPENNYKTTPPVLDSDGSFFLVSKLTVDKSRWQQGNVFSCSVMHEALHNHYTQKSLSLSPDYKDDDDK light: DIVMTQSPLSLPVTPGEPASISCRSSQSLVHSNRNTYLHWYQQKPGQAPRLLIYKVSNRFSGVPDRFSGSGSGTDFTLKISRVEAEDVGVYYCGQGTQVPYTFGQGTKLEIKRTVAAPSVFIFPPSDEQLKSGTASVVCLLNNFYPREAKVQWKVDNALQSGNSQESVTEQDSKDSTYSLSSTLTLSKADYEKHKVYACEVTHQGLSSPVTKSFNRGEC not shown | binds | 
BiAb of CE115HA056-BS03a/GLS3000-k0 with the IC17 arm (bispecific antibody, human IgG1, kappa, N297A, See m38 on the IC17 arm) heavy 1: QVQLVESGGGVVQPGRSLRLSCAASGFTFSNAWMHWVRQAPGKGLEWVAQIKAKSNNYATYYAESVKGRFTISRDDSKNSLYLQMNSLKTEDTAVYYCRYAHYGAYYGVDAWGQGTTVTVSSASTKGPSVFPLAPSSRSTSESTAALGCLVKDYFPEPVTVSWNSGALTSGVHTFPAVLQSSGLYSLSSVVTVPSSSLGTKTYTCNVDHKPSNTKVDKRVEPKSCDKTHTCPPCPAPELRRGPKVFLFPPKPKDTLMISRTPEVTCVVVDVSQEDPEVQFNWYVDGVEVHNAKTKPREEQFASTYRVVSVLTVLHQDWLNGKEYKCKVSNKGLPSSIEKTISKAKGQPREPQVYTLPPSREEMTKNQVSLTCLVKGFYPSDIAVEWESNGQPENNYKTTPPYLDSDGSFFLYSKLTVDKSRWQQGNVFSCSVMHEALHNHYTQESLSLSP light 1: DIVMTQSPLSLPVTPGEPASISCRSSQSLVHSNRNTYLHWYQQKPGQAPRLLIYKVSNRFSGVPDRFSGSGSGTDFTLKISRVEAEDVGVYYCGQGTQVPYTFGQGTKLEIKRTVAAPSVFIFPPSDEQLKSGTASVVCLLNNFYPREAKVQWKVDNALQSGNSQESVTEQDSKDSTYSLSSTLTLSKADYEKHKVYACEVTHQGLSSPVTKSFNRGEC heavy 2: QVQLQQSGPQLVRPGASVKISCKASGYSFTSYWMHWVNQRPGQGLEWIGMIDPSYSETRLNQKFKDKATLTVDKSSSTAYMQLSSPTSEDSAVYYCALYGNYFDYWGQGTTLTVSSASTKGPSVFPLAPSSRSTSESTAALGCLVKDYFPEPVTVSWNSGALTSGVHTFPAVLQSSGLYSLSSVVTVPSSSLGTKTYTCNVDHKPSNTKVDKRVEPKSCDKTHTCPPCPAPELRRGPKVFLFPPKPKDTLMISRTPEVTCVVVDVSQEDPEVQFNWYVDGVEVHNAKTKPREEQFASTYRVVSVLTVLHQDWLNGKEYKCKVSNKGLPSSIEKTISKAKGQPREPQVYTLPPSREEMTKNQVSLTCLVKGFYPSDIAVEWESNGQPENNYKTTPPYLDSDGSFFLYSKLTVDKSRWQQGNVFSCSVMHEALHNHYTQESLSLSP light 2: DIQMTQSSSSFSVSLGDRVTITCKASEDIYNRLAWYQQKPGNAPRLLISGATSLETGVPSRFSGSGSGKDYTLSITSLQTEDVATYYCQQYWSTPYTFGGGTKLEVKRTVAAPSVFIFPPSDEQLKSGTASVVCLLNNFYPREAKVQWKVDNALQSGNSQESVTEQDSKDSTYSLSSTLTLSKADYEKHKVYACEVTHQGLSSPVTKSFNRGEC |  | 7.4
